Assay results reported in US20090298765A1 (Takeda / Millennium, published 2009).
Non-standard residues stand in square brackets, D forms with d. Primed or numbered codes have the meaning given here. No end group written: not given here. *: point of attachment. GuAmb = 4-guanidinomethylbenzoyl, N=C(N)NCc1ccc(C(=O)*)cc1; Phe(3-CF3) = N[C@@H](Cc1cccc(C(F)(F)F)c1)C(=O)O; Arg(Et)′ = arginine carrying an ethyl group; Phe(4-CN) = N#Cc1ccc(C[C@H](N)C(=O)O)cc1; Phe(4-Cl) = N[C@@H](Cc1ccc(Cl)cc1)C(=O)O; Phe(3-F) = N[C@@H](Cc1cccc(F)c1)C(=O)O; Phe(4-F) = N[C@@H](Cc1ccc(F)cc1)C(=O)O; Phe(2-F) = N[C@@H](Cc1ccccc1F)C(=O)O; Arg(Me) = CNC(=N)NCCC[C@H](N)C(=O)O; Fmoc = O=C(OCC1c2ccccc2-c2ccccc21)*; 2Pal = N[C@@H](Cc1ccccn1)C(=O)O; 3Pal = N[C@@H](Cc1cccnc1)C(=O)O; Cha = N[C@@H](CC1CCCCC1)C(=O)O; Arg(Et)″ = ethylated arginine; Dab = NCC[C@H](N)C(=O)O; azaGly = NNC(=O)O

B1: [D-Ala1,AzaGly7,Arg(Me)9]MS10 (peptide)
peptide: [dA]NWNSF[azaGly]L[Arg(Me)]F-NH2
modifications: N-terminus assumed
SMILES: CNC(=N)NCCC[C@H](NC(=O)[C@H](CC(C)C)NC(=O)NNC(=O)[C@H](Cc1ccccc1)NC(=O)[C@H](CO)NC(=O)[C@H](CC(N)=O)NC(=O)[C@H](Cc1c[nH]c2ccccc12)NC(=O)[C@H](CC(N)=O)NC(=O)[C@@H](C)N)C(=O)N[C@@H](Cc1ccccc1)C(N)=O
notes: also called Compound No. 259
B2: [D-Tyr1,D-His2,AzaGly7,Arg(Me)9]MS10 (peptide)
peptide: [dY][dH]WNSF[azaGly]L[Arg(Me)]F-NH2
modifications: N-terminus assumed
SMILES: CNC(=N)NCCC[C@H](NC(=O)[C@H](CC(C)C)NC(=O)NNC(=O)[C@H](Cc1ccccc1)NC(=O)[C@H](CO)NC(=O)[C@H](CC(N)=O)NC(=O)[C@H](Cc1c[nH]c2ccccc12)NC(=O)[C@@H](Cc1c[nH]cn1)NC(=O)[C@H](N)Cc1ccc(O)cc1)C(=O)N[C@@H](Cc1ccccc1)C(N)=O
notes: also called Compound No. 288
B3: [D-Tyr1,D-Asn2,Thr3,AzaGly7,Arg(Me)9,Phe(4F)10]MS10 (peptide)
peptide: [dY][dN]TNSF[azaGly]L[Arg(Me)][Phe(4-F)]-NH2
modifications: N-terminus assumed
SMILES: CNC(=N)NCCC[C@H](NC(=O)[C@H](CC(C)C)NC(=O)NNC(=O)[C@H](Cc1ccccc1)NC(=O)[C@H](CO)NC(=O)[C@H](CC(N)=O)NC(=O)[C@@H](NC(=O)[C@@H](CC(N)=O)NC(=O)[C@H](N)Cc1ccc(O)cc1)[C@@H](C)O)C(=O)N[C@@H](Cc1ccc(F)cc1)C(N)=O
notes: also called Compound No. 316
B4: [D-Tyr1,D-Ser2,AzaGly7,Arg(Me)9]MS10 (peptide)
peptide: [dY][dS]WNSF[azaGly]L[Arg(Me)]F-NH2
modifications: N-terminus assumed
SMILES: CNC(=N)NCCC[C@H](NC(=O)[C@H](CC(C)C)NC(=O)NNC(=O)[C@H](Cc1ccccc1)NC(=O)[C@H](CO)NC(=O)[C@H](CC(N)=O)NC(=O)[C@H](Cc1c[nH]c2ccccc12)NC(=O)[C@@H](CO)NC(=O)[C@H](N)Cc1ccc(O)cc1)C(=O)N[C@@H](Cc1ccccc1)C(N)=O
notes: also called Compound No. 287
B5: des(1-2)-Acetyl-[Ala3,AzaGly7,Arg(Me)9]MS10 (peptide)
peptide: Ac-ANSF[azaGly]L[Arg(Me)]F-NH2
SMILES: CNC(=N)NCCC[C@H](NC(=O)[C@H](CC(C)C)NC(=O)NNC(=O)[C@H](Cc1ccccc1)NC(=O)[C@H](CO)NC(=O)[C@H](CC(N)=O)NC(=O)[C@H](C)NC(C)=O)C(=O)N[C@@H](Cc1ccccc1)C(N)=O

Experiments:
[1] = target: T1, human OT7T175 (metastin receptor) (human, UniProt Q969F8 1-398); test: competition with Cy-5 metastin (40-54) on hOT7T175-CHO cells, FMAT
T1 construct: expressed on CHO cells; also called hOT7T175; hOT7T175-expressed CHO cells
Protocol: hOT7T175-Expressed CHO cells were cultured in MEM-α medium (nucleic acid-free) containing 10% dialyzed serum. The medium was removed and the adhered cells were washed with PBS. Then, PBS containing 5 mM EDTA was added and the cells were scraped from a flask with a cell scraper.
To each well of a 96-Well Black Clear Bottom Microplate (Applied Biosystems, Inc.), 10 μL of assay buffer containing 1% dimethylsulfoxide was added to examine total binding, 10 μL of 10 μM non-labeled peptide (having the same amino acid sequence as that of labeled one) solution diluted with assay buffer to examine non-specific binding, and 10 μL of a test compound diluted with assay buffer to examine a binding inhibition activity of the test compound, and furthermore, 90 μL each of the cell suspension was dispensed to each well. […] Specific binding is calculated as non-specific binding subtracted from total binding. The binding inhibition activity of a test compound is shown by a ratio of the value obtained by subtracting a measured value in presence of a test compound from the total binding to the specific binding.

[2] = target: T1, human OT7T175 (metastin receptor); test: cell-based or functional assay

T1 sequence (Q969F8 whole entry L364H): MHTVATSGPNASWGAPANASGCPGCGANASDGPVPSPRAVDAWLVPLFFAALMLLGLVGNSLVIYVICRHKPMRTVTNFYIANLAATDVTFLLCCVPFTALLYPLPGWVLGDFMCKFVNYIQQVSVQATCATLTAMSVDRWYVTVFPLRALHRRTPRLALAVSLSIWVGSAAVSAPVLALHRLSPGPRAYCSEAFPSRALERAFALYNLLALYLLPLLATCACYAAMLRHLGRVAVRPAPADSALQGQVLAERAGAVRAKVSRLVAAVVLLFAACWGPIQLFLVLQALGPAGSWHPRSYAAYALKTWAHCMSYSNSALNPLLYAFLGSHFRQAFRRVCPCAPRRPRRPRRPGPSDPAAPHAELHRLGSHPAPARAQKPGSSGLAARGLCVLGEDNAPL

Binder	IC50 [1] [nM]	Ca ion level-increasing activity (FLIPR) [2]
B1	250	1 x Metastin (1-54)
[dY][dN]FNSF[azaGly]L[Arg(Me)]F-NH2 (also called Compound No. 257) [[D-Tyr1,D-Asn2,Phe3,AzaGly7,Arg(Me)9]MS10]	40	3 x Metastin (1-54)
B2	0.072	1 x Metastin (1-54)
B3	26	1 x Metastin (1-54)
[dY][dN]TNSF[azaGly]L[Arg(Me)]F-NH2 (also called Compound No. 284) [[D-Tyr1,D-Asn2,Thr3,AzaGly7,Arg(Me)9]MS10]	34	1 x Metastin (1-54)
B4	2.3	2 x Metastin (1-54)
YNWNSFGLR[Phe(3-CF3)]-NH2 (also called Compound No. 200) [[Phe(3CF3)10]MS10]	340	–
YNWNSFGLR[Phe(4-F)]-NH2 (also called Compound No. 61) [[Phe(4F)10]MS10]	13	–
B5	–	1 x Metastin (1-54)
[dY]N[2Pal]NSF[azaGly]L[Arg(Me)]F-NH2 (also called Compound No. 285) [[D-Tyr1,Pya(2)3,AzaGly7,Arg(Me)9]MS10]	40	–
YNWNSFGL[Arg(Et)′]F-NH2 (also called Compound No. 220) [[Arg(Et)9]MS10]	330	–
Fmoc-WNSFGL[Arg(Me)]F-NH2 (also called Compound No. 145) [des(1-2)-Fmoc-[Arg(Me)9]MS10]	120	–
YNWNSFGLR[Phe(3,4F2)]-NH2 (also called Compound No. 198) [[Phe(3,4F2)10]MS10]	170	–
[dY]N[3Pal]NSF[azaGly]L[Arg(Me)]F-NH2 (also called Compound No. 251) [[D-Tyr1,Pya(3)3,AzaGly7,Arg(Me)9]MS10]	87	–
YNWNSFGLR[Phe(4-Cl)]-NH2 (also called Compound No. 130) [[Phe(4Cl)10]MS10]	42	–
[dY]N[dW]NSFGL[Arg(Me)]F-NH2 (also called Compound No. 142) [[D-Tyr1,D-Trp3,Arg(Me)9]MS10]	26	–

Binder	IC50 [1] [nM]	Ca ion level-increasing activity (FLIPR) [2]
[dW]NSFGL[Arg(Me)]F-NH2 (also called Compound No. 223) [des(1-2)-[D-Trp3,Arg(Me)9]MS10]	760	–
[dY]NWNSFGL[Arg(Me)]F-NH2 (also: bond 7-8 CONH replaced by CH2NH, also called Compound No. 307) [[7Ψ8,CH2NH,D-Tyr1,Arg(Me)9]MS10]	64	–
[dY][dN][Cha]NSF[azaGly]L[Arg(Me)]F-NH2 (also called Compound No. 283) [[D-Tyr1,D-Asn2,Cha3,AzaGly7,Arg(Me)9]MS10]	0.69	–
YNWNSFGLR[Phe(3-F)]-NH2 (also called Compound No. 197) [[Phe(3F)10]MS10]	170	–
{D‑glucuronyl}-NSF[azaGly]L[Arg(Me)]F-NH2 (also called Compound No. 328) [des(1-3)-D-Glucuronyl-[AzaGly7,Arg(Me)9]MS10]	470	–
[dN][Cha]NSF[azaGly]L[Arg(Me)]F-NH2 [des(1)-[D-Asn2,Cha3,AzaGly7,Arg(Me)9]MS10]	–	1 x Metastin (1-54)
YNWNSFGLR[Phe(2-F)]-NH2 (also called Compound No. 19) [[Phe(2F)10]MS10]	8.6	–
YNWNSFGLR[Phe(4-CN)]-NH2 (also called Compound No. 77) [[Phe(4CN)10]MS10]	7.4	–
YNWNSFGL[Dab]F-NH2 (also called Compound No. 313) [[Dab9]MS10]	690	–
[dY]NWNSFGL[Arg(Et)″]F-NH2 (also called Compound No. 192) [[D-Tyr1,Arg(Et)9]MS10]	530	–
YNWNSF[azaGly]L[Arg(Me)]F-NH2 (also: bond 1-2 CONH replaced by CH2NH, also called Compound No. 299) [[1Ψ2,CH2NH,AzaGly7,Arg(Me)9]-MS10]	1.2	–
[dY]N[dW]NSF[azaGly]L[Arg(Me)]F-NH2 (also called Compound No. 236) [[D-Tyr1,D-Trp3,AzaGly7,Arg(Me)9]MS10]	42	–
GuAmb-F[azaGly]L[Arg(Me)]W-NH2 [des(1-5)-GuAmb-[AzaGly7,Arg(Me)9,Trp10]MS10]	–	5 x Metastin (1-54)
[dY]N[Cha]NS[Cha]GL[Arg(Me)]F-NH2 (also called Compound No. 181) [[D-Tyr1,Cha3,6,Arg(Me)9]MS10]	19	–
YNWNSFGLRX (Pya(3)10; C-terminal amide, also called Compound No. 60) [[Pya(3)10]MS10]	170	–
